± gives the standard deviation of the averaged measurements.
System: ATP
Test: switch fluorescence ratio, 500 uM ATP over buffer (Cy3 cluster intensity, sum of 5 cycles each) (fold (ratio)); higher = stronger signal-on switching upon ATP binding; sequences stand for … in TCGTCGGCAGCGTCAGATGTGTATAAGAGACAGTTTTTTTTTTTTTTTTTTTTTTTTT…TC
Details: aptamer strand: ATP DNA aptamer (quencher-CACCTGGGGGAGTATTGCGGAGGAAGG + anchor), 100 nM annealed; ATP concentration: 500 uM
How it was run: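 Clusters with intensities outside 100-1000 RFU were excluded. The remaining Cy3-labelled switching-strand clusters on a modified Illumina MiSeq flow-cell had been annealed to 100 nM quencher-labelled ATP aptamer and imaged in selection buffer, then after 15 min with 500 uM ATP at 22 °C, for five cycles separated by NaOH stripping and re-annealing. The fluorescence ratio, averaged per switch-domain sequence, is each cluster's summed target-cycle Cy3 intensity over its summed buffer-cycle Cy3 intensity.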
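Further: ATP exposure 15 min at 22 °C before imaging.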

Sequence	switch fluorescence ratio
GTTAGGCCCT	1 ± 0.014
GTTAGGCGGT	1.01 ± 0.014
GTTAGGGGAT	1 ± 0.011
GTTAGGTATT	0.93 ± 0.023
GTTAGGTGTG	1.11 ± 0.13
GTTAGGTTGC	1.01 ± 0.046
GTTAGGTTTG	0.997 ± 0.029
GTTAGTAGGA	1.02 ± 0.019
GTTAGTTGGA	0.964 ± 0.025
GTTATAGTTT	0.985 ± 0.014
GTTATATTG	1.01 ± 0.031
GTTATCTTTC	1.07 ± 0.029
GTTATGGGGC	0.966 ± 0.043
GTTATTAATT	0.983 ± 0.0036
GTTATTATGG	1.013 ± 0.0084
GTTATTATTA	0.993 ± 0.019
GTTATTGAAG	0.982 ± 0.022
GTTATTGAGT	1.007 ± 0.0089
GTTATTGTGT	0.999 ± 0.028
GTTATTGTTC	0.975 ± 0.016
GTTCAAGGGC	0.996 ± 0.032
GTTCAGGGGA	1.27 ± 0.41
GTTCATGCAG	0.993 ± 0.024
GTTCATTGTT	0.941 ± 0.017
GTTCCTGTGG	1.0156 ± 0.00081
GTTCGAAGGG	0.987 ± 0.013

Sequence	switch fluorescence ratio
GTTCGTTAGC	0.988 ± 0.004
GTTCTAAGTA	0.957 ± 0.0039
GTTCTCCTT	1.07 ± 0.1
GTTCTTTTTC	0.978 ± 0.019
GTTGAAGGCA	1.01 ± 0.022
GTTGAATCAT	0.992 ± 0.017
GTTGAATTTT	1.01 ± 0.032
GTTGACGGGT	0.971 ± 0.025
GTTGACGTTG	0.991 ± 0.054
GTTGAGGGTA	1 ± 0.034
GTTGAGTTGA	1.01 ± 0.021
GTTGAGTTTT	0.962 ± 0.03
GTTGATAACT	1.009 ± 0.0012
GTTGATAAGA	0.982 ± 0.035
GTTGATCAT	0.983 ± 0.015
GTTGATTTGG	0.981 ± 0.015
GTTGATTTTG	0.981 ± 0.042
GTTGCAAGAA	1.13 ± 0.06
GTTGCAATTT	1.16 ± 0.13
GTTGCAGGAA	0.992 ± 0.04
GTTGCAGTGT	1.02 ± 0.037
GTTGCGAAGG	0.983 ± 0.02
GTTGCGAGGT	0.9872 ± 0.004
GTTGGAAACT	1.04 ± 0.017
GTTGGAATGT	1.03 ± 0.018
GTTGGACAGA	1.03 ± 0.015

Sequence	switch fluorescence ratio
GTTGGACCAA	1.021 ± 0.0027
GTTGGAGGGG	0.985 ± 0.03
GTTGGAGGTG	1.06 ± 0.012
GTTGGAGGTT	0.9921 ± 0.0052
GTTGGAGTTA	0.976 ± 0.023
GTTGGATTGG	0.996 ± 0.019
GTTGGATTTC	1.01 ± 0.047
GTTGGCACTG	1.036 ± 0.0053
GTTGGCGAGT	1.01 ± 0.032
GTTGGCGGGC	0.997 ± 0.036
GTTGGGAGGG	0.985 ± 0.012
GTTGGGCGGA	0.993 ± 0.029
GTTGGGGATG	1.02 ± 0.026
GTTGGGGCGG	1.01 ± 0.057
GTTGGGGCTC	1.01 ± 0.04
GTTGGGGGGA	1 ± 0.033
GTTGGGGGTC	0.995 ± 0.011
GTTGGGTGGA	1.0356 ± 0.00032
GTTGGGTGGT	0.968 ± 0.01
GTTGGTACGT	1.01 ± 0.03
GTTGGTCTAT	0.9778 ± 0.0064
GTTGGTGAGT	0.989 ± 0.015
GTTGGTGCAC	0.98 ± 0.04
GTTGGTGGTG	0.9719 ± 0.0029
GTTGGTTAAT	0.966 ± 0.054
GTTGGTTGGA	0.983 ± 0.022

Sequence	switch fluorescence ratio
GTTGGTTTGT	0.986 ± 0.019
GTTGGTTTTC	0.99 ± 0.036
GTTGTAGACA	0.9847 ± 0.0048
GTTGTAGTCG	1.02 ± 0.038
GTTGTATGAT	0.9841 ± 0.0096
GTTGTATTTT	0.989 ± 0.022
GTTGTCCATA	1.015 ± 0.0029
GTTGTGATCT	0.989 ± 0.015
GTTGTGATGT	1 ± 0.013
GTTGTGCATA	1.02 ± 0.03
GTTGTGGGGT	0.976 ± 0.025
GTTGTGGTGT	1.02 ± 0.014
GTTGTGTGTA	0.9921 ± 0.0082
GTTGTGTGTG	0.974 ± 0.041
GTTGTTAACT	0.999 ± 0.048
GTTGTTATGG	0.988 ± 0.017
GTTGTTCGGT	1.01 ± 0.015
GTTGTTTAAT	1.006 ± 0.0081
GTTGTTTAGG	0.953 ± 0.023
GTTGTTTGCG	0.953 ± 0.023
GTTTAACTAT	1.015 ± 0.0038
GTTTAAGGAG	1.02 ± 0.066
GTTTAAGGCC	1.01 ± 0.043
GTTTAAGGCT	1.02 ± 0.088
GTTTAAGGGT	0.996 ± 0.055
GTTTAAGGTT	1.08 ± 0.2

Sequence	switch fluorescence ratio
GTTTACATTG	0.985 ± 0.042
GTTTACTATA	1.06 ± 0.049
GTTTAGACGT	1.01 ± 0.011
GTTTAGGGGT	1.03 ± 0.081
GTTTAGGTTT	1 ± 0.019
GTTTAGTC	0.976 ± 0.025
GTTTATATCC	1.02 ± 0.013
GTTTATCGCT	1.023 ± 0.0077
GTTTATGGAC	1.02 ± 0.011
GTTTATTCGC	0.998 ± 0.043
GTTTATTGAA	1.024 ± 0.0036
GTTTCACGGT	1.003 ± 0.0079
GTTTCAGTGT	0.972 ± 0.021
GTTTCATTTT	1.01 ± 0.012
GTTTCGCGAC	1.19 ± 0.026
GTTTCGGGGG	0.9895 ± 0.006
GTTTCTTCGA	0.973 ± 0.013
GTTTGAATAT	0.984 ± 0.047
GTTTGAGGGC	0.985 ± 0.052
GTTTGATCAG	0.941 ± 0.011
GTTTGCAACG	0.986 ± 0.021
GTTTGCCCTG	0.99 ± 0.022
GTTTGCTATT	0.992 ± 0.032
GTTTGCTGGT	1 ± 0.015
GTTTGGAGGC	1.01 ± 0.016
GTTTGGAGGG	0.979 ± 0.029

Sequence	switch fluorescence ratio
GTTTGGAGGT	0.992 ± 0.03
GTTTGGAGTG	1 ± 0.041
GTTTGGGGCA	0.994 ± 0.033
GTTTGGGGCG	1.01 ± 0.035
GTTTGGGGCT	0.989 ± 0.019
GTTTGGGGGT	1.04 ± 0.12
GTTTGGGTGC	1.072 ± 0.0055
GTTTGGGTTA	1.01 ± 0.016
GTTTGGTGC	1.02 ± 0.022
GTTTGTAACG	1.02 ± 0.015
GTTTGTACCT	1.13 ± 0.1
GTTTGTACGA	0.97621 ± 0.0002
GTTTGTTCGC	0.997 ± 0.076
GTTTGTTTTT	0.976 ± 0.032
GTTTTAAAAG	0.979 ± 0.01
GTTTTAAGCT	1.023 ± 0.0058
GTTTTACGTG	0.998 ± 0.024
GTTTTAGCGG	0.964 ± 0.027
GTTTTAGCTT	1 ± 0.011
GTTTTAGTGG	0.9867 ± 0.0089
GTTTTATGTA	1.025 ± 0.0069
GTTTTATTAT	1.017 ± 0.0017
GTTTTCGGCC	0.996 ± 0.029
